Source: publication PMC12459236

Target: SpyTag-AP205 recombinant protein (self-assembled AP205 nanoparticles) (bacteriophage AP205)
Assay: SDS-PAGE of covalent coupling; purified ST-AP205 and CTD-SC mixed at designated molar ratios, left overnight at 4°C; covalent SpyTag-SpyCatcher coupling read by SDS-PAGE

PDCoV S1-CTD-SpyCatcher recombinant protein
rate of formation of CTDnps (ST-AP205:CTD-SC molar ratio 4:10): > 80%
